We go through two molecules from article PMC5864917 (2018).

By Kd is commonly meant the equilibrium constant for the complex coming apart.

For experiment [1], the target named is biotinylated SE36 (Plasmodium falciparum (Honduras-1)). The experiment is described as follows: SPR; Biacore T200, chip SA; biotinylated SE36 immobilized at 200 RU via streptavidin; purified VTN 1.25-20 μg/mL (~17.9-285.7 nM) flowed at 20 μL/min, 25 °C, PBS with 0.05% Tween 20; fitted to 1:1 binding and bivalent analyte models. Background: In SPR one partner is held on a chip, and binding of the other changes the refractive index at the surface.

Another experiment has as its target T1, SERA5 SE36 (Plasmodium falciparum, UniProt Q9TY95).
T1 chain: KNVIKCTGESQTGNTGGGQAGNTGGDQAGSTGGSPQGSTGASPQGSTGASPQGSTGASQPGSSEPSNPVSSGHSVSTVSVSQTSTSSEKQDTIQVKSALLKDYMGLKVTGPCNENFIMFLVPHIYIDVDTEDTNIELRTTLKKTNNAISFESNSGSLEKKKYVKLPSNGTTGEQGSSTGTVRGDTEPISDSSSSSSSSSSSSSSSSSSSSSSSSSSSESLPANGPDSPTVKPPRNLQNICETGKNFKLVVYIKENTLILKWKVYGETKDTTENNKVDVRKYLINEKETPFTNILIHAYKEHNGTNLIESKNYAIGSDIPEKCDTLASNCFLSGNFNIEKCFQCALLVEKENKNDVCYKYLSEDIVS
The experiment is described as follows: SPR.

In experiment [1], “Vitronectin (VTN), human (natural protein)” showed a KD1 (bivalent analyte model, first interaction) of 3.7 nM; a ka1 (bivalent analyte model, first interaction) of 550000 M⁻¹ s⁻¹; a kd1 (bivalent analyte model, first interaction) of 0.002 s⁻¹.

B1: Vitronectin (protein)
chain: ATWLSLFSSEESNLGANNYDDYRMDWLVPATCEPIQSVFFFSGDKYYRVNLRTRRVDTVDPPYPRSIAQYWLGCPAPGHL
On to B1, for which the equilibrium dissociation constant (Kd) with SERA5 SE36 is 3.7 nM.
